Laboratory results as given in publication PMC3965691.

Target: GST-Pin1 (human Pin1, full length, fused to GST) (human) (UniProt Q13526)
Assay: pull-down

Chain of GST-Pin1 (human Pin1, full length, fused to GST) (human) (Q13526 whole entry, the tested form may be a part): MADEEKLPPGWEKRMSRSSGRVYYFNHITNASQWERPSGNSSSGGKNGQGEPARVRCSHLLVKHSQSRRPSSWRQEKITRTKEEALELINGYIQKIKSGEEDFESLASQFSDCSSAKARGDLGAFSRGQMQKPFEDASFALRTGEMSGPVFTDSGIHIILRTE

K0.5 [µM]	Substance
0.3	His6-DI-2 (Drosophila phosphatase inhibitor-2) (natural protein)
0.3	His6-XI-2 (Xenopus phosphatase inhibitor-2) (natural protein)
